# Source: US20240343806A1
# Molecular target: mouse CTLA4 (mouse) (UniProt P09793)
# Experiment: flow cytometry on CHO-mCTLA4 cells; SSC vs Anti-Human-IgGFc-FITC
# Sequence of mouse CTLA4 (mouse) (P09793 36-223 S182T limits assumed): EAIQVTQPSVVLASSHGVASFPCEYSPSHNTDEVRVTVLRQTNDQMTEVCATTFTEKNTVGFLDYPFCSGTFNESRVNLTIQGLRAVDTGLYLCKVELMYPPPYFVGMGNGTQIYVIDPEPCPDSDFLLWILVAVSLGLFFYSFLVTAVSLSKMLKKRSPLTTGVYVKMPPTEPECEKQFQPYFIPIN
substance,measurement,value
NC,% cells in the FITC-positive gate,0.133%
